Molecular target: laminin 5 (α3β3γ2) purified from SCC25 cell culture medium (human (endogenous in SCC25)) (UniProt Q16787)
Test: rotary shadowing electron microscopy

With “NC-1 domain of type VII collagen purified from human amnion (from UniProt Q02388 17-2944) (domain or fragment)” the stoichiometry N was 1.

Reference: PMC2141627
